Tested on: MS2 coat protein
Assay: apparent KD of MS2 coat protein; higher = weaker reporter binding
Settings: Eterna round: R107
Outline: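 Designed RNA switches were transcribed on-chip from Illumina sequencing clusters. They were then titrated with SNAP-549-labelled MS2 coat protein (twofold steps, 0.7 or 1.5 nM to 3 µM; 0.8–1.5 h to 10–20 min per step) in 100 mM Tris-HCl pH 7.5, 80 mM KCl, 4 mM MgCl2, without or with constant ligand. Apparent KD is the per-design median of normalised cluster binding-curve fits.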

[1] = input ligand: theophylline 20 uM
[2] = input ligand: tryptophan 2.4 mM
[3] = input ligand: theophylline 2 mM

Sequence | apparent KD of MS2 coat protein (input ligand: arginine 13.2 mM) | apparent KD of MS2 coat protein [1] | apparent KD of MS2 coat protein [2] | apparent KD of MS2 coat protein [3] | apparent KD of MS2 coat protein (input ligand: none)
GCACGACAUGAGGAUCACCCAUGUGCAGAUACCAGUAAUGUAUGUUACCCUUGGCAGCUGAGUAGGUCUGGAGGGCUAUAGGUAA [Same State Theophylline A GF12] | 10.6 nM | 18 nM | 13.7 nM | – | –
GCACGGGCGAUCGGCACUUUUACUAAUAUACGAGGACCGGUACGGCCGCCACUCGAGCUAAGACAUGAGGAUCACCCAUGUAACG [theeternabot_exclusion_MS2_Trp_A_41] | 22 nM | 30 nM | – | 30.4 nM | –
GCCGCGGCCGCGAUACACAUGGGUGUGUAACGAGGACCGGUACGGCCGCCACUCGAGAUGGCACAUGAGGAUCACCCAUGUGUGC [Exclusion Tryp A GF16] | 17.1 nM | 60.2 nM | 29.9 nM | 44.5 nM | 24.1 nM
GCGAUGGAGCGAAGGAGCGUGCUAGUACAUGAGGAUCACCCAUGUGAGUCGCAGCGCUAAGCACAGGUAGGUCGCGCUCCAUCGC [EAB NP+V+V2 #12] | 31.1 nM | 26.8 nM | 40.5 nM | 49.7 nM | 48.4 nM
GCGGACAUGAGGAUCACCCAUGUAAAUCCUCGAGGACCGGUACGGCCGCCACUCGAACGAGUGGCGCGCGAGCGCGCGCUCGCGC [aBa] | 39.4 nM | 60.3 nM | 45.7 nM | 36.4 nM | 30.2 nM
GCGUGGUCUGCGGCCGCCACUCAAGGAGCUACAUAGCUCCUAGACAUGAGGAUCACCCAUGUCGCGAGGACCGGGUAGAUUCUCC [Same State Typptophan B GF10] | 40.2 nM | 134 nM | – | 120 nM | –
GCUAGGUCUACGGCCGCCACUAGACGUGGGUAAGACAUGAGGAUCACCCAUGUACUACAGGCGCAUAGGACCGGGUAGACCUAGC [SSTB NP+V+V2 #11 Same Structure] | 49.6 nM | 74.5 nM | 13.2 nM | 82.6 nM | 78.9 nM
GCUAUGGCUAGAAGGAGCGUGAAUUUCAGAAAACAUGAGGAUCACCCAUGUAAGGAUAUGACACAGGUAGGUCGCUAGCCAUAGC [SSAB NP+V+V2 #19] | 9.88 nM | 10.5 nM | 10.8 nM | 12.5 nM | 10.8 nM
GCUGCCAUACGAAGGAGCGCUGUUGCAAUGAGGCGAACAUGAGGAUCACCCAUGUGGCAAAAGCAGGUAGGUCGCGUAUGGCAGC [EAB #17] | 20.4 nM | 29.3 nM | 20.2 nM | 23.4 nM | 20.5 nM
GCUGCUUAGGGAAGGAGCGCUGCGGAAUUGUGGAGGACAUGAGGAUCACCCAUGUUCCUGCGGCAGGUAGGUCGCUUUGGGCAGC [#17 Exclusion - Arginine B] | 32.8 nM | 48.1 nM | 45.3 nM | 60.5 nM | 40.3 nM
GCUGCUUUGGGAAGGAGCGCUGCGGUAUUGUGGCGGACAUGAGGAUCACCCAUGUGCCUGCAGCAGGUAGGUCGCUUAGGGCAGC [EAP NP+V+V2 #17] | 54 nM | 92 nM | 58.4 nM | 79.8 nM | 68.8 nM
GCUGUACCAUGAAGGAGCGCUUUAAUUAUAGAAGAUACAUGAGGAUCACCCAUGUUCCUCGAGCAGGUAGGUCGCAUGGUACAGC [SSAB #18] | 25.4 nM | 33 nM | 22.9 nM | 27 nM | 20.3 nM
GGACAUGCAGGAAGGAGCGACACGCAGAAACUGCAAAAUCCUCCACACGAGGAUCACCCGUGUCAGGUAGGUCGCCUGCAUGUCG [ArgXB 15 #Zipper #MS2Left #StaticStem #Blueprint] | 88.8 nM | 140 nM | 110 nM | 127 nM | 73.3 nM
GGACUAACCAGAAGGAGCGACACAAGCAGAAACUGCAAUCCUCCGCACGAGGAUCACCCGUGUCAGGUAGGUCGCUGGUUAGUCG [ArgBX 28] | 57.5 nM | 96.8 nM | 67.4 nM | 96.8 nM | 63.7 nM
GGACUAACCUGAAGGAGCGGCGCGCAGAAACUGCAAAUUCCUCCACACGAGGAUCACCCGUGUCAGGUAGGUCGCAGGUUAGUCG [ArgBX 28] | 11.5 nM | 16.6 nM | 12.7 nM | 12.6 nM | 12.1 nM
GGAGCUACGUCGGCCGCCACUAGCGGAUAUUACGUGUACAUGAGGAUCACCCAUGUAAUACGGUUUAGGACCGGGACGUAGCUCC [Lizard] | 15.6 nM | 22.4 nM | – | 20.6 nM | –
GGAGCUACGUCGGCCGCCACUAGCGGGUAUUGCGUGUACAUGAGGAUCACCCAUGUAAUACGGCCUAGGACCGGGACGUAGCUCC [Raven] | 12.1 nM | 19.1 nM | 13.8 nM | 14.5 nM | –
GGAUAGGACAGAAGGAGCGUGAGAUGCAAAGCUUCAUUCCUCACAUGAGGAUCACCCAUGUCACAGGUAGGUCGCUGUCCUAUCG [#19 Exclusion - Arginine B] | 78.6 nM | 106 nM | 78.9 nM | 111 nM | 102 nM
GGCACGUACGGAAGGAGCGACUGUUCAACGUGGGUACAUGAGGAUCACCCAUGUCUCCGCAGUCAGGUAGGUCGCCGUACGUGCC [EAB NP+V+V2 #20] | 15 nM | 19.8 nM | 10.7 nM | 13.2 nM | 12.2 nM
GGCCAUGGAAACAUGGCGGCGGCGUAUGCGCGAGGACCGGUACGGCCGCCACUCGGGCGACAUGAGGAUCACCCAUGUUCCUCAU [ETA NP+V+V2 #25] | 127 nM | 243 nM | – | 275 nM | –

Sequence | apparent KD of MS2 coat protein (input ligand: arginine 13.2 mM) | apparent KD of MS2 coat protein [1] | apparent KD of MS2 coat protein [2] | apparent KD of MS2 coat protein [3] | apparent KD of MS2 coat protein (input ligand: none)
GGCGCGAGCCAACAUGAGGAUCACCCAUGUCGAGGACCGGUACGGCCGCCACUCGAACGAGUGAAGCGCGCGCGCGCGCGCGCGC [Uaa] | 32.4 nM | 106 nM | 167 nM | 68.8 nM | 61.5 nM
GGCGCUGCGUCGGCCGCCACUAGUGGGUAAUGGGUGUACAUGAGGAUCACCCAUGUAUUUUGGCCUAGGACCGGGACGUGGCGCC [Oxen] | 81.9 nM | 455 nM | – | 570 nM | –
GGGACACCGGGAAGGAGCGCAUCCAAACCACACAUGAGGAUCACCCAUGUAUAAAUAUGCAUGCAGGUAGGUCGCCCGAUGUCUC [Anrearradi] | 60.9 nM | 121 nM | 110 nM | 120 nM | 90.7 nM
GGGACAUCGGGAAGGAGCGCAUCCAAACCACACAUGAGGAUCACCCAUGUAUAAAUAUGCAUGCAGGUAGGUCGCCCGGUGUCUC [Ersoatus] | 79.5 nM | 131 nM | 121 nM | 117 nM | 104 nM
GGGAGAUGAAAAGAUUGAGCUAAAACAGAAGGAGCGUGAAUUAACACAGGUAGGUCGCUGACAACAUGAGGAUCACCCAUGUAUU [Same State Arginine A GF4] | 24.9 nM | 30.4 nM | 21.4 nM | 26.5 nM | 19.6 nM
GGGCCUAUCUGAAGGAGCGACAUGAGGAUCACCCAUGUCUCCCGUUAUGGGAGUUCUUUAGGUCAGGUAGGUCGCAGGUAGGGCC [#1 Exclusion - Arginine B Attempt #5 (Inspired by Omei)] | 12.2 nM | 19 nM | 15 nM | 15.2 nM | 14.7 nM
GGGCGAGUGGAGCGGCGUGCUCCGCUCCGUCGAGGACCGGUACGGCCGCCACUCGACAUGAGGAUCACCCAUGUGCGAGCUCGCG [#1 Exclusion - Tryptophan A Attempt #13 (HarryS)] | 7.39 nM | 27.1 nM | 180 nM | 58.6 nM | 17.6 nM
GGGCGCGUGGACUGGCGUGCUCCGCUCCGUCGAGGACCGGUACGGCCGCCACUCGACAUGAGGAUCACCCAUGUGUGAGCUCGCG [#1 Exclusion - Tryptophan A Attempt #17 (HarryS)] | 62.9 nM | 229 nM | – | 259 nM | –
GGGUACAUCGCGGCCGCCACUUAUGUAAAUACAUGAGGAUCACCCAUGUCGAUGGAGACAUCGGAAAGGACCGGGUGAUGUACCG | 130 nM | 271 nM | – | 262 nM | –
GGGUACAUCGCGGCCGCCACUUGUGUAAAUACAUGAGGAUCACCCAUGUCGAUGGAGACAUCGGAGAGGACCGGGUGAUGUACCG | 70.7 nM | 122 nM | 40.8 nM | 96.5 nM | 80 nM
GGGUACAUCGCGGCCGCCACUUGUGUAAAUACAUGAGGAUCACCCAUGUCGAUGGAGACAUCGGGAAGGACCGGGUGAUGUACCG | 218 nM | 802 nM | 650 nM | 1200 nM | 342 nM
GGGUGGUAGGCGGCCGCCACUGAUUUUCAUUCCUAGAUGACAUGAGGAUCACCCAUGUUUAUGGGCAGGACCGGGCCUGCUGUGG [aaaV] | 38.4 nM | 64.1 nM | – | 79.9 nM | –
GGUAGACGGACGGCCGCCACUCACAUGAGGAUCACCCAUGUAUAGUUGGUAAUCUGGGUUCAGGAGAGGACCGGGUCCUUGUCAG [theeternabot_exclusion_MS2_Trp_B_43] | 34.3 nM | 23.2 nM | 23.3 nM | 24.3 nM | 18.4 nM
GGUAUAUAGGCGGCCGCCACUGAUUUUCAUAUAUAUAUAACAUGAGGAUCACCCAUGUAGAUAUACAGGACCGGGCCUAUAUAUU [aaaC] | 16.1 nM | 17.7 nM | – | 16.4 nM | –
GGUUACUCUACGGCCGCCACUGUAAAGUAAAGAUUACUGUACAUGACAUGAGGAUCACCCAUGUACAGGACCGGGUAGUGUAACC [Tryptophan B 15] | 32.2 nM | 46.3 nM | – | 35.5 nM | –
GGUUACUCUACGGCCGCCACUGUAAUGUAAAGAUACCUGUACAUGACAUGAGGAUCACCCAUGUACAGGACCGGGUAGUGUAACC [Tryptophan B 17] | 144 nM | 312 nM | – | 343 nM | –
GGUUAGGUUUUUGAUACCAGCUAUUGGUGUCAUCUGAGGAUCACCCAGGUCUUGUGUUUUAGCCCUUGGCAGCAAAAGUUUAGUC [SSTheo B #28] | 72.6 nM | 118 nM | 108 nM | 94.1 nM | 88.4 nM
GGUUGAUGACAUGAGGAUCACCCAUGUAGGCGAGGACCGGUACGGCCGCCACUCGACAUGAGGAUCACCCAUGUCGGCGUCCGUG | 14.3 nM | 19.9 nM | – | 18 nM | –
GGUUGGUGUAGAGAUAUAUUGAUUACUGAAGGAGCGGGACGAAACCCAGGUAGGUCGCAGAGAUCCACAUGAGGAUCACCCAUGU [!0.M] | 31.6 nM | 46.6 nM | 33.4 nM | 61.4 nM | 46.1 nM
GUACAUGAGGAUCACCCAUGUAUAGUUGAAGGAGCGACCAGAGGGUCAGGUAGGUCGCAGCACAUGGCGUAAACCCGUGUAUGCC [#1 Exclusion - Arginine A Attempt #23 (Inspired by Pi)] | 20.4 nM | 27.9 nM | 21.2 nM | 24.9 nM | 21 nM
